From paper PMC4114562 come the findings set out here.

The assay addresses rFKBP22 (a recombinant E. coli FKBP22) (Escherichia coli) (UniProt P0A9L3). Briefly: cross-linking; glutaraldehyde-mediated chemical cross-linking of rFKBP22 (bound/unbound with rapamycin) at 30°–85°C, analysed by SDS-13.5% PAGE.

The stoichiometry N is the number of molecules, sites or subunits per partner or assembly. “rFKBP22 (a recombinant E. coli FKBP22) (from UniProt P0A9L3 1-206) (enzyme)”: the stoichiometry N amounted to 2.
